One protein from paper doi:10.1101/2024.07.30.605912 (bioRxiv, 2024) can be followed below.

This series concerns the molecule itself. The experiment in a line: cryo-EM structure.

B1: Salmonella typhimurium ArnC (undecaprenyl-phosphate 4-deoxy-4-formamido-L-arabinose transferase) (enzyme)
chain: MFDAAPIKKVSVVIPVYNEQESLPELIRRTTTACESLGKAWEILLIDDGSSDSSAELMVKASQEADSHIISILLNRNYGQHAAIMAGFSHVSGDLIITLDADLQNPPEEIPRLVAKADEGFDVVGTVRQNRQDSLFRKSASKIINLLIQRTTGKAMGDYGCMLRAYRRPIIDTMLRCHERSTFIPILANIFARRATEIPVHHAEREFGDSKYSFMRLINLMYDLVTCLTTTPLRLLSLLGSVIAIGGFSLSVLLIVLRLALGPQWAAEGVFMLFAVLFTFIGAQFIGMGLLGEYIGRIYNDVRARPRYFVQQVIYPESTPFTEESHQ
What is called stoichiometry N is the number of molecules, sites or subunits per partner or assembly. Regarding B1, the “stoichiometry N” value was 4.
